Biological target: SARS-CoV-2 Spike
Assay: SPR

In order of falling Kd:
1. S2P6  9.7 nM
2. CV3-25  2.5 nM
3. CC40.8  1.6 nM

In order of rising koff:
1. CC40.8  0.00038 s⁻¹
2. CV3-25  0.00061 s⁻¹
3. S2P6  0.0033 s⁻¹

From paper PMC9302814
